From patent US20220127316A1 (University of Pennsylvania, published 2022)

Target: T1, recombinant human GFRα-like His-tag receptor (R&D 9647-GR-050) (human, UniProt Q6UXV0 19-351)
T1 construct: Bought protein, captured on a Pierce nickel coated plate at 0.1 µg/mL; also called GFRAL receptor; GDNF family receptor alpha-like; not shown: His-tag
T1 sequence (looked up): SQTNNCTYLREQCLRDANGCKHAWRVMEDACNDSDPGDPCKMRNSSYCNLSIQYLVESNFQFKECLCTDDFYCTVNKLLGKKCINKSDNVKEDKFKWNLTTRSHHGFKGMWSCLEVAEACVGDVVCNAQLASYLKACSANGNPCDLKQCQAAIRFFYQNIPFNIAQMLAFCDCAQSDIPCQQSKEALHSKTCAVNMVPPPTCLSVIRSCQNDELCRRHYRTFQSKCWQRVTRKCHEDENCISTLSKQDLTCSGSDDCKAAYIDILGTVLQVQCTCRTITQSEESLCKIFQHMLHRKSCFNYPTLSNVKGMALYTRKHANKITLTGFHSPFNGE
Assay: ELISA; His-tagged GFRAL captured on nickel coated plate, GDF15 titrated 100 to 0.005 ng/mL, detected with anti-GDF15 primary antibody
Method: To validate binding of the synthesized peptides to the GFRAL receptor, an ELISA assay was developed to determine the binding affinity of the peptides for their receptor. The primary antibody (Abcam ab206414) was diluted to 1 μg/mL. The secondary antibody was diluted by placing 5 μL into 10 mL assay buffer. GDF15 was run at concentrations of 100 ng/mL to 0.005 ng/mL. The recombinant human GFRα-like His-tag receptor (R&D 9647-GR-050) was added to the Pierce™ nickel coated plate (ThermoFisher Scientific 15442) at 0.1 μg/mL in a total volume of 100 μL.

Kd: 1.03 ng/mL
B1: Recombinant human GDF-15 (rhGDF15) (ligand, UniProt Q99988 197-308, looked up)
chain: ARNGDHCPLGPGRCCRLHTVRASLEDLGWADWVLSPREVQVTMCIGACPSQFRAANMHAQIKTSLHRLKPDTVPAPCCVPASYNPMVLIQKTDTGVSLQTYDDLLAKDCHCI
notes: Run at 100 ng/mL to 0.005 ng/mL in the ELISA and detected with primary antibody Abcam ab206414; also called growth and differentiation factor 15; MIC-1
